Data from paper PMC9935730.

Target: Recombinant full-length Pin1, N-terminally His6-tagged (human) (UniProt Q13526)
Assay: SDS-PAGE and western blot; fractions eluted from the HisTrapHP column with imidazole, 15% SDS-PAGE, HRP conjugated anti-His antibody; second band seen in the more concentrated fractions

Recombinant full-length Pin1, N-terminally His6-tagged (from UniProt Q13526 1-163) (enzyme)
stoichiometry N: 2
